Positions of bridges follow the written chain, without caps; N, C: chain ends. Non-standard residues stand in square brackets, D forms with d. *: point of attachment. Pyrrolidide = C1CCN(*)C1; dNMeA = CN[C@H](C)C(=O)O
T1: C-terminal domain-deleted human Regnase-1 (amino acids 1 to 546) with N-terminal FLAG tag and C-terminal BirA … (human, UniProt Q5D1E8 1-546)
T1 sequence: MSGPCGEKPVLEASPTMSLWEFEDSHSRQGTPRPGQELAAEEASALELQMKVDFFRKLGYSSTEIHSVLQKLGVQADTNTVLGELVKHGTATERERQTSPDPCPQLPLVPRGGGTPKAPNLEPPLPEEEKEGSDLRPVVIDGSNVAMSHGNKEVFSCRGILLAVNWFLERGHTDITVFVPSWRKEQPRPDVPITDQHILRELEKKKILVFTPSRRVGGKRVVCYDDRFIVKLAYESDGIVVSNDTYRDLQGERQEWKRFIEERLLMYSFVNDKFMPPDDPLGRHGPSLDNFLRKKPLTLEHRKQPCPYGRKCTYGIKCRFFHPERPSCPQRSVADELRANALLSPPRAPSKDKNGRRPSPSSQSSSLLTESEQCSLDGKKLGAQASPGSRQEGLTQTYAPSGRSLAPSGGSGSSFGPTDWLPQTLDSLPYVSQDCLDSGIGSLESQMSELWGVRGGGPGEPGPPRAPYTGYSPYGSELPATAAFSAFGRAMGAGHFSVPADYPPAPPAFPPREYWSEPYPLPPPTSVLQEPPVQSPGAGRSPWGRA

T2: full-length human Regnase-1 with a FLAG tag on the N-terminal side and a biotin ligase BirA recognition … (human, UniProt Q5D1E8 1-599, biotinylated at the BirA recognition sequence when required)
T2 sequence: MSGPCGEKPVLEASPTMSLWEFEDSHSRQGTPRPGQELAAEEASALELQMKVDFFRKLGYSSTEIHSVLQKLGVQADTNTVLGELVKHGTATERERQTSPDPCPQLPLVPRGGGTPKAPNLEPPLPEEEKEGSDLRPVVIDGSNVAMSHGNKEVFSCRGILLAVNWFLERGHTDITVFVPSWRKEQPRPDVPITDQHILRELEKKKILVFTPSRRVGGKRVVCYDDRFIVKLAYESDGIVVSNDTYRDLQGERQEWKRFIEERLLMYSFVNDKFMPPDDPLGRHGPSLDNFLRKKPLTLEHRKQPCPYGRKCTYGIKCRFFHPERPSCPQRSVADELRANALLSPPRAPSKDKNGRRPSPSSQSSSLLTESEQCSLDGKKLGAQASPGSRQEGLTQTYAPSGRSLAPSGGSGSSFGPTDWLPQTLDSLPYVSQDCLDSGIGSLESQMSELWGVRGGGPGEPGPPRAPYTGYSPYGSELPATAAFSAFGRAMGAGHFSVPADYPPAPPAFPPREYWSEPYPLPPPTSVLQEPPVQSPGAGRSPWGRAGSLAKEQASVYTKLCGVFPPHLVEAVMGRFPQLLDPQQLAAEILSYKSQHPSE

T3: C-terminal human Regnase-1 (amino acids 301 to 599) with N-terminal FLAG tag and C-terminal BirA recognition … (human, UniProt Q5D1E8 301-599)
T3 sequence: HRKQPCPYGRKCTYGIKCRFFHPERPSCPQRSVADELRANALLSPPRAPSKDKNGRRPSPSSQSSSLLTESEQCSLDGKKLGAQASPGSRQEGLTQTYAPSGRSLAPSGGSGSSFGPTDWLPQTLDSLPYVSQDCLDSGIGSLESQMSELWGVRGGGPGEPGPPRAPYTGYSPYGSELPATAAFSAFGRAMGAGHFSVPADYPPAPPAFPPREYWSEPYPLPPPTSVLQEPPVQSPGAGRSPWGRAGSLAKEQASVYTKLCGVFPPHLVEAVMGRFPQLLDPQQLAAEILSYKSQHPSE


Experiments:
Test in all cases: cell-based or functional assay
[1] = molecular target: T1, C-terminal domain-deleted human …
[2] = molecular target: T2, full-length human Regnase-1 with a FLAG …
[3] = molecular target: T3, C-terminal human Regnase-1 (amino acids …)
[4] = molecular target: T1, C-terminal domain-deleted human …; remark: listed apart in the source
[5] = molecular target: T2, full-length human Regnase-1 with a FLAG …; remark: listed apart in the source
[6] = molecular target: T3, C-terminal human Regnase-1 (amino acids …); remark: listed apart in the source

Binder	50% inhibition concentration, Regnase-1 phosphorylation by TBK1 (AlphaScreen) [1] [µM]	50% inhibition concentration, Regnase-1 phosphorylation by TBK1 (AlphaScreen) [2] [µM]	50% inhibition concentration, Regnase-1 phosphorylation by TBK1 (AlphaScreen) [3] [µM]	50% inhibition concentration, Regnase-1 phosphorylation by IKKβ (AlphaScreen) [4] [µM]	50% inhibition concentration, Regnase-1 phosphorylation by IKKβ (AlphaScreen) [5] [µM]	50% inhibition concentration, Regnase-1 phosphorylation by IKKβ (AlphaScreen) [6] [µM]
XSKYWNSWYNIWD (HELM PEPTIDE1{[C[C@H](C(=O)[*:2])N(C)[*:1]].S.K.Y.W.N.S.W.Y.N.I.W.D.[C1CCN([*:1])C1]}$PEPTIDE1,PEPTIDE1,1:R1-13:R3$$$V2.0; SMILES CC[C@H](C)[C@@H]1NC(=O)[C@H](CC(N)=O)NC(=O)[C@H](Cc2ccc(O)cc2)NC(=O)[C@H](Cc2c[nH]c3ccccc23)NC(=O)[C@H](CO)NC(=O)[C@H](CC(N)=O)NC(=O)[C@H](Cc2c[nH]c3ccccc23)NC(=O)[C@H](Cc2ccc(O)cc2)NC(=O)[C@H](CCCCN)NC(=O)[C@H](CO)NC(=O)[C@@H](C)N(C)C(=O)C[C@@H](C(=O)N2CCCC2)NC(=O)[C@H](Cc2c[nH]c3ccccc23)NC1=O) [PP8]	5.5	2.9	6	7.8	1.4	5.7
XNFNSAYYRAIWD (HELM PEPTIDE1{[meA].N.F.N.S.A.Y.Y.R.A.I.W.D.[C1CCN([*:1])C1]}$PEPTIDE1,PEPTIDE1,1:R1-13:R3$$$V2.0; SMILES CC[C@H](C)[C@@H]1NC(=O)[C@H](C)NC(=O)[C@H](CCCNC(=N)N)NC(=O)[C@H](Cc2ccc(O)cc2)NC(=O)[C@H](Cc2ccc(O)cc2)NC(=O)[C@H](C)NC(=O)[C@H](CO)NC(=O)[C@H](CC(N)=O)NC(=O)[C@H](Cc2ccccc2)NC(=O)[C@H](CC(N)=O)NC(=O)[C@H](C)N(C)C(=O)C[C@@H](C(=O)N2CCCC2)NC(=O)[C@H](Cc2c[nH]c3ccccc23)NC1=O) [PP7]	4.7	2.2	4.6	4.5	0.8	3

Next, values leading:

50% inhibition concentration, Regnase-1 phosphorylation by TBK1 (AlphaScreen) [1] [µM]	50% inhibition concentration, Regnase-1 phosphorylation by TBK1 (AlphaScreen) [2] [µM]	50% inhibition concentration, Regnase-1 phosphorylation by TBK1 (AlphaScreen) [3] [µM]	50% inhibition concentration, Regnase-1 phosphorylation by IKKβ (AlphaScreen) [4] [µM]	50% inhibition concentration, Regnase-1 phosphorylation by IKKβ (AlphaScreen) [5] [µM]	50% inhibition concentration, Regnase-1 phosphorylation by IKKβ (AlphaScreen) [6] [µM]	Binder
6.6	4.2	7.9	6.4	2.7	6.2	[dNMeA]TYGHSSWYKIWD-Pyrrolidide (lactam N-13) [PP9]
0.2	0.2	0.4	2.6	0.5	1.8	XNYQSWYYRSIWD (HELM PEPTIDE1{[meA].N.Y.Q.S.W.Y.Y.R.S.I.W.D.[C1CCN([*:1])C1]}$PEPTIDE1,PEPTIDE1,1:R1-13:R3$$$V2.0; SMILES CC[C@H](C)[C@@H]1NC(=O)[C@H](CO)NC(=O)[C@H](CCCNC(=N)N)NC(=O)[C@H](Cc2ccc(O)cc2)NC(=O)[C@H](Cc2ccc(O)cc2)NC(=O)[C@H](Cc2c[nH]c3ccccc23)NC(=O)[C@H](CO)NC(=O)[C@H](CCC(N)=O)NC(=O)[C@H](Cc2ccc(O)cc2)NC(=O)[C@H](CC(N)=O)NC(=O)[C@H](C)N(C)C(=O)C[C@@H](C(=O)N2CCCC2)NC(=O)[C@H](Cc2c[nH]c3ccccc23)NC1=O) [PP10]
